How the values were obtained:
Experiment in all cases: ELISA on coated NKG2D-Fc
[1] = biological target: T1, cynomolgus NKG2D-Fc fusion protein (cynomolgus; human, UniProt P61252 73-216)
T1 construct: extracellular domain; also called cynomolgus recombinant NKG2D-Fc; cynomolgus recombinant NKG2D; not shown: human IgG1 Fc domain
T1 sequence (looked up): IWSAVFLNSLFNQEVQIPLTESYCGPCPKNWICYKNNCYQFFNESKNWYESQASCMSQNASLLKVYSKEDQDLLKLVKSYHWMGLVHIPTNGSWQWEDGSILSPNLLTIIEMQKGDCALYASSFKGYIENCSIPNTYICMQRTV

[2] = biological target: T2, mouse NKG2D-Fc fusion protein (mouse; human, UniProt O54709 90-232)
T2 construct: extracellular domain; also called mouse recombinant NKG2D-Fc; recombinant mouse NKG2D-Fc; not shown: human IgG1 Fc domain
T2 sequence (looked up): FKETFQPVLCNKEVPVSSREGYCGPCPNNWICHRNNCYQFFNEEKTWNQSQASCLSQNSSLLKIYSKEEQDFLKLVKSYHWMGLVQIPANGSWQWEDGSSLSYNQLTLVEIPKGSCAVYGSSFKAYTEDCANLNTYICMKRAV

[3] = biological target: T3, human NKG2D-Fc fusion protein (human, UniProt P26718 73-216)
T3 construct: extracellular domain; also called recombinant human NKG2D-Fc; human recombinant NKG2D; not shown: human IgG1 Fc domain
T3 sequence (looked up): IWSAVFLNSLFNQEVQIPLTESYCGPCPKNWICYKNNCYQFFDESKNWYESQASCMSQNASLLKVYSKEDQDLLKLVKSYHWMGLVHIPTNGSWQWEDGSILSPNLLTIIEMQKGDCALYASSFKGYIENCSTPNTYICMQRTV

Measured: binding result

B1: ADI-29447 (antibody, V domains shown)
VH: QVQLQQWGAGLLKPSETLSLTCAVYGGSFSGYYWSWIRQPPGKGLEWIGEIDHSGSTNYNPSLKSRVTISVDTSKNQFSLKLSSVTAADTAVYYCARARGPWSFDPWGQGTLVTVSS
VL: DIQMTQSPSTLSASVGDRVTITCRASQSISSWLAWYQQKPGKAPKLLIYKASSLESGVPSRFSGSGSGTEFTLTISSLQPDDFATYYCQQYDTFITFGGGTKVEIK
notes: also called F47
binds: all assays above

B2: ADI-27724 (antibody, V domains shown)
VH: QVQLQQWGAGLLKPSETLSLTCAVYGGSFSGYYWSWIRQPPGKGLEWIGEIDHSGSTNYNPSLKSRVTISVDTSKNQFSLKLSSVTAADTAVYYCARARGPWSFDPWGQGTLVTVSS
VL: not shown
binds: all assays above

B3: ADI-29379 (antibody, V domains shown)
VH: QVQLVQSGAEVKKPGASVKVSCKASGYTFTSYYMHWVRQAPGQGLEWMGIINPSGGSTSYAQKFQGRVTMTRDTSTSTVYMELSSLRSEDTAVYYCARGAPNYGDTTHDYYYMDVWGKGTTVTVSS
VL: EIVMTQSPATLSVSPGERATLSCRASQSVSSNLAWYQQKPGQAPRLLIYGASTRATGIPARFSGSGSGTEFTLTISSLQSEDFAVYYCQQYDDWPFTFGGGTKVEIK
notes: also called E79
binds: all assays above

B4: ADI-29378 (antibody, V domains shown)
VH: QVQLVQSGAEVKKPGASVKVSCKASGYTFTSYYMHWVRQAPGQGLEWMGIINPSGGSTSYAQKFQGRVTMTRDTSTSTVYMELSSLRSEDTAVYYCAREGAGFAYGMDYYYMDVWGKGTTVTVSS
VL: EIVLTQSPATLSLSPGERATLSCRASQSVSSYLAWYQQKPGQAPRLLIYDASNRATGIPARFSGSGSGTDFTLTISSLEPEDFAVYYCQQSDNWPFTFGGGTKVEIK
notes: also called E78
binds: all assays above

B5: ADI-27744 (antibody, V domains shown)
VH: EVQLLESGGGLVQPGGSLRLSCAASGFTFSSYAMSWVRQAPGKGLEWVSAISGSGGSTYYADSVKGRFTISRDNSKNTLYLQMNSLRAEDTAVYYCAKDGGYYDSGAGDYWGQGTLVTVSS
VL: DIQMTQSPSSVSASVGDRVTITCRASQGIDSWLAWYQQKPGKAPKLLIYAASSLQSGVPSRFSGSGSGTDFTLTISSLQPEDFATYYCQQGVSYPRTFGGGTKVEIK
notes: also called A44
binds: all assays above

B6: ADI-27749 (antibody, V domains shown)
VH: EVQLVESGGGLVKPGGSLRLSCAASGFTFSSYSMNWVRQAPGKGLEWVSSISSSSSYIYYADSVKGRFTISRDNAKNSLYLQMNSLRAEDTAVYYCARGAPMGAAAGWFDPWGQGTLVTVSS
VL: DIQMTQSPSSVSASVGDRVTITCRASQGISSWLAWYQQKPGKAPKLLIYAASSLQSGVPSRFSGSGSGTDFTLTISSLQPEDFATYYCQQGVSFPRTFGGGTKVEIK
notes: also called A49
binds: all assays above
